Publication PMC6313988

Target: hypothetical protein ST2166 (putative isocitrate dehydrogenase) from Sulfolobus tokodaii strain 7 (Sulfolobus tokodaii strain 7)
Assay: crystal structure; hanging-drop crystals of ST2166 (8 mg/mL) in 13% PEG 10,000, 100 mM HEPES pH 7.5, 10°C; space group P21, two monomers in the asymmetric unit; apo form at 2.0 Å and crystal soaked with 25 mM NADP+ at 2.4 Å

stoichiometry N: 2
Substance: hypothetical protein ST2166 (putative isocitrate dehydrogenase) from Sulfolobus tokodaii strain 7 (enzyme)
